Measurements as given in article doi:10.1101/2024.11.13.623522 (bioRxiv, 2024).

Biological target: T1, GST-tagged Shu (Shu-GST) (Drosophila, UniProt Q9W1I9 1-455)
T1 sequence (looked up): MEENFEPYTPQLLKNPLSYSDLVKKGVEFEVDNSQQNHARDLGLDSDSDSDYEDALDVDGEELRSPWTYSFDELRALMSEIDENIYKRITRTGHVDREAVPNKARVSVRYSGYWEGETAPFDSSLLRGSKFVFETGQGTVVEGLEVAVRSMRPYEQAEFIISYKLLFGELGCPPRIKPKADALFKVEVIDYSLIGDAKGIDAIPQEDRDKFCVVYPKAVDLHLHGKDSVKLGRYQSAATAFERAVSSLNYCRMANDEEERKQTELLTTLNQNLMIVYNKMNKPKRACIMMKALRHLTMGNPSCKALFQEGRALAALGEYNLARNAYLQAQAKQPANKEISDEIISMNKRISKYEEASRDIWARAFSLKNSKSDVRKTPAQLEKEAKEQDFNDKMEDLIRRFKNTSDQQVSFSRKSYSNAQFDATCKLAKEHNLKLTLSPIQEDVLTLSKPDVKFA
Assay: pull-down

B1: FLAG-tagged Armi S769I mutant, recombinant (natural protein, Drosophila, UniProt Q6J5K9 1-1188, looked up)
chain: MFTYVSKFFTNPDRNREDILESLDRENSFLDQKLMEEKMDQQLKANPNEINGVLSNKIAELTHGLSEMDVSKESSCTARKGVITSLDGDRGVIDKDVLFETKVAEDIILDLHVGCVVEYLTFTTGEAMRVVKVKSILEHSWEDTSQKEIEKAVDNLKNEKPTFFNTETRSVLGLISQRLASSIDVETEYGQLTVELDNIEMNFIPTNGDRVRLECNIQLDDGFVDKQGEILEVTKLFPTRIQEGEKCIVERVYVHMVVLGPETYILKTDLPTGTDLHLGDIVLADLIECQYSKFTRRAIKITPLEKNFGATKLTQQSSMGSSGSGKAVTVTGVNRFITAELWQKESVSLKLTNNLNRTLRLESITVCNDSESQLSVVSPLESKEISSGSEITVTFEIHTQFLGEAIEKYVLNFDLLKVRRVFTVIVCKTKEEVAEAEKRMIAAEALMAPGRNSQERSRFYANQVWCNKVDVIPGQQIVTKRRFVALRLGCFEVPKELRQICLTSERRQEMIKAIEQHYSFLTEPLSIKTYMHRFRLLLHLEEIECFVNFRNYDRDRAHFLRDGEFLTLQIENLAERRPSLVIGDTLRVINPWSDPDSQTTKSYEGIIHKVLFDRILLKFHSSFQEKYNGEDYRLEFYFSRYSFRKQHHAISKIVGVMGEDFLFPSKVTKRENPQLDVYMKDDDMYLYDSKLEWYNQSLNSIQKRAVFNILRGEAENIPYVLFGPPGSGKTMTLIETLLQLVRNLPGARILVGTPSNSSADLVTKRLIDIKALLQGDFIRLVSYNQVEKDLIPPEIMSYCATSDVGAVGSCEDKMMVTESGLKLRCQAKFIGTHRITISTCTTLGNFLQLGFPAGHFTHVLFDEAGQCTEPETMVPIVMLTKKRSQVVLSGDPRQLQSIVTSRIASKMGFSISFLERLLERSPYRKDLQRFPESSGYNPLVLTKLLYNYRALPSIMSIYSRLFYDDELIPVLSEKDSRESRLLSKLRCVFESEKDIPQAHGTFFYGIIGENRQNNDSPSWFNPQEVREVFLMTIALYRANVTADQIGIITPYQKQVKMLRSMFIGTDVVMPKIGSVEEFQGQERDIILISTVRSSEEILRMDARFSLGFVRCSKRLNVAVSRARAMMIIFGNPHLLAVDECWRQLILFCVKNNAYFGCDLPQMVINQKDEVPVCLETFVPSLNTTDDLN
  pull-down efficiency relative to Armi WT: ~1.5 fold
